Measurements reported in patent US20140072558A1.

Biological target: ACVR2B as used in surface plasmon resonance (UniProt Q13705)
Experiment: SPR; with 0.625 nM B09

Chain of ACVR2B as used in surface plasmon resonance (Q13705 19-134): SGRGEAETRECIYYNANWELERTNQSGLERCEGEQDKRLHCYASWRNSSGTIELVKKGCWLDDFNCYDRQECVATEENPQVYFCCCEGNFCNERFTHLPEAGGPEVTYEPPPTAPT

In the case of “water-soluble DLK1 treated together with the B09 antibody (from UniProt P80370 25-302)”, the Kd is reported as 4.07E-10 ?.
